Experimental data reported in publication doi:10.1101/2020.11.23.394270.

Molecular target: T1, human urotensin II receptor (hUT), stably expressed in HEK 293 cells (human) (UniProt Q9UKP6)
T1 sequence: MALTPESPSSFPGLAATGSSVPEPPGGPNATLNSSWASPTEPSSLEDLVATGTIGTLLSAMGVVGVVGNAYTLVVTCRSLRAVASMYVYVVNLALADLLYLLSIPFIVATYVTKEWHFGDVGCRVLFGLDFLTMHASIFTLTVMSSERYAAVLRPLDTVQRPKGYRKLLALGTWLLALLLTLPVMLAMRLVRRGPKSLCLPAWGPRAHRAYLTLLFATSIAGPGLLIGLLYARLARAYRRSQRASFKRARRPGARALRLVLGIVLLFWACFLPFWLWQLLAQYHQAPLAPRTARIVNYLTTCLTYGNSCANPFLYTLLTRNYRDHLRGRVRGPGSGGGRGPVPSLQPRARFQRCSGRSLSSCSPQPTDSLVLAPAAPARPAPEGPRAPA

Emax of β-arrestin 2 conformational change (BRET biosensor), HEK 293-hUT cells: 100%
Substance: human urotensin II (ligand)
